Assay results published in patent US20030158387.

What was measured:
[1] = test system: processed human chemokine PHC-1 (HCC-1[9-74])
[2] = test system: T1, full size human chemokine HCC-1 (residues 1-74)
T1 sequence: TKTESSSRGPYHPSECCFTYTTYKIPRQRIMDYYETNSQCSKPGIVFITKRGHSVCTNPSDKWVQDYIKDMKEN

Substance	proteolytic degradation (tryptic digestion with increased incubation time) [1]	proteolytic cleavage (tryptic digestion, enzyme/substrate-ratio (w/w) 1/100, one hour) [2]	activity of 50 nM PHC-1 after incubation with 10 or 100 IU purified urokinase [1]
trypsin	trypsin generated PHC-1 then degrades PHC-1 into inactive fragments when the incubation time is increased	the 74 residue peptide was in part cleaved into smaller fragments. One cleavage product, the newly identified biologically active peptide PHC-1	–
urokinase (purified CHOAY urokinase, Sanofi Wintrop; uPA)	–	–	No change of activity was observed after an incubation of 90 min at 37 °C
